The chains are these.
B1: Mutation 3 (antibody, mouse IgG2b, kappa, V domains shown)
VH: QVQLQQPGAELVRPGASVKLSCKASGSSFTNYWMNWVKQRPGQGLEWIGMINPSESETRINQKFKDKATLTVDKSSSTAYMQLSSLTAEDSAVYYCAKSGDFYTSYFDYWGQGTTLTVSS
VL: DIQLTQSPASLSASVGETVTITCRGSGNLHNYIAWYQQKQGKSPQLLVYNARTIADGVPSRFSGSGSGTQYSLKINSLQPEDFGSYYCQSFWSTYTFGGGTKLEIKR
B2: Mutation 1 (antibody, mouse IgG2b, kappa, V domains shown)
VH: B1 VH with N52H
VL: B1 VL with I33L
B3: anti-Pan-PLDH 9G7 monoclonal antibody (antibody, mouse IgG2b, kappa, V domains shown)
VH: B1 VH with W33F, F107W
VL: B1 VL with T94S
B4: Mutation 2 (antibody, mouse IgG2b, kappa, V domains shown)
VH: B1 VH with W33F, N52H
VL: B1 VL with I33L, T94S
B5: Mutation 4 (antibody, mouse IgG2b, kappa, V domains shown)
VH: B1 VH with W33F, N52H, F107W
VL: B1 VL
B6: Mutation 1-50 (antibody, mouse IgG2b, kappa, V domains shown)
VH: B1 VH with S27T, N52H, E55D, I60V, D101E
VL: B1 VL with L29V, I33L, R52K
B7: Mutation 1-48 (antibody, mouse IgG2b, kappa, V domains shown)
VH: B1 VH with S27Y, N52H, E55D, S105Y
VL: B1 VL with I33L, R52K, I54L, S90Y
B8: Mutation 1-45 (antibody, mouse IgG2b, kappa, V domains shown)
VH: B1 VH with S27Y, N52H, K98R, D101E, S105Y
VL: B1 VL with L29V, I33L
B9: Mutation 1-46 (antibody, mouse IgG2b, kappa, V domains shown)
VH: B1 VH with S27T, N52H, I60L, K98R, D101E, S105T
VL: B1 VL with S26T, I33L, I54V, S90Y
B10: Mutation 1-51 (antibody, mouse IgG2b, kappa, V domains shown)
VH: B1 VH with N52H, D101E, S105Y
VL: B1 VL with S26T, L29V, I33L, I54L, S90T
B11: Mutation 1-44 (antibody, mouse IgG2b, kappa, V domains shown)
VH: B1 VH with N52H, E55D, I60V, K98R, D101E
VL: B1 VL with S26T, L29V, I33L, R52K, I54L, S90Y
B12: Mutation 1-42 (antibody, mouse IgG2b, kappa, V domains shown)
VH: B1 VH with S27Y, N52H, E55D, K98R
VL: B1 VL with S26T, L29I, I33L, R52K, S90T
B13: WT 1-1 (antibody, mouse IgG2b, kappa, V domains shown)
VH: B1 VH with S27T, W33F, E55D, K98R, F107W
VL: B1 VL with S26T, L29I, R52K, I54L, S90T, T94S
B14: Mutation 1-52 (antibody, mouse IgG2b, kappa, V domains shown)
VH: B1 VH with S27Y, N52H, I60L, D101E, S105T
VL: B1 VL with L29I, I33L, I54V
B15: Mutation 1-49 (antibody, mouse IgG2b, kappa, V domains shown)
VH: B1 VH with N52H, E55D, I60L, S105T
VL: B1 VL with S26T, I33L, R52K, I54V, S90T
B16: Mutation 1-43 (antibody, mouse IgG2b, kappa, V domains shown)
VH: B1 VH with S27T, N52H, E55D, I60L, K98R, S105Y
VL: B1 VL with L29I, I33L, R52K, I54V
B17: WT 1-3 (antibody, mouse IgG2b, kappa, V domains shown)
VH: B1 VH with W33F, K98R, D101E, S105Y, F107W
VL: B1 VL with S26T, I54L, S90T, T94S
B18: Mutation 1-40 (antibody, mouse IgG2b, kappa, V domains shown)
VH: B1 VH with S27T, N52H, I60L, D101E, S105Y
VL: B1 VL with L29I, I33L, S90T
B19: WT 1-5 (antibody, mouse IgG2b, kappa, V domains shown)
VH: B1 VH with S27Y, W33F, I60V, D101E, S105T, F107W
VL: B1 VL with S26T, L29I, I54L, T94S
B20: Mutation 1-53 (antibody, mouse IgG2b, kappa, V domains shown)
VH: B1 VH with N52H, I60V, K98R
VL: B1 VL with S26T, L29I, I33L, S90Y
B21: WT 1-4 (antibody, mouse IgG2b, kappa, V domains shown)
VH: B1 VH with S27Y, W33F, E55D, I60V, S105T, F107W
VL: B1 VL with L29V, R52K, I54V, S90Y, T94S
B22: WT 1-2 (antibody, mouse IgG2b, kappa, V domains shown)
VH: B1 VH with S27Y, W33F, E55D, I60V, K98R, S105T, F107W
VL: B1 VL with S26T, L29V, R52K, S90Y, T94S
B23: Mutation 1-47 (antibody, mouse IgG2b, kappa, V domains shown)
VH: B1 VH with S27T, N52H, I60V
VL: B1 VL with I33L, I54L, S90T
B24: Mutation 1-41 (antibody, mouse IgG2b, kappa, V domains shown)
VH: B1 VH with S27Y, N52H, I60V, D101E, S105T
VL: B1 VL with S26T, L29I, I33L, I54L
B25: Mutation 1-55 (antibody, mouse IgG2b, kappa, V domains shown)
VH: B1 VH with S27Y, N52H, E55D, I60L, K98R, S105T
VL: B1 VL with L29I, I33L, R52K, S90Y
B26: Mutation 1-54 (antibody, mouse IgG2b, kappa, V domains shown)
VH: B1 VH with S27T, N52H, E55D, K98R, S105Y
VL: B1 VL with S26T, L29I, I33L, R52K, I54V
B27: Mutation 1-39 (antibody, mouse IgG2b, kappa, V domains shown)
VH: B1 VH with N52H, D101E
VL: B1 VL with S26T, L29V, I33L, I54V, S90Y

Changes are numbered by the printed parent chain.

What is called Kd is the equilibrium constant for the complex coming apart.

The target in the first test is Pan-species-specific antigen Plasmodium Lactate DeHydrogenase (Pan-PLDH) protein. Kind of test: indirect ELISA, recombinant MA protein coated 1 ug/ml, antibody 8 ng/ml.
B1: the OD value at 450 nm (refer to 630 nm) was 1.01 OD.
Still for that read-out and setting: the figure for B2 is 1.1 OD; for B3 it is 0.635 OD.
Still for that read-out and setting: next, B4: 1 OD.
The same measure, in the same setting: next, B5: 0.939 OD.

For a further test the target is unchanged. Nature of the test: indirect ELISA, recombinant MA protein coated 1 ug/ml, antibody 40 ng/ml.
On to B1, for which the OD value at 450 nm (refer to 630 nm) stood at 2.01 OD.
Same read-out and setting: next, B2: 2.02 OD.
In the case of B3, the OD value at 450 nm (refer to 630 nm) turned out to be 1.43 OD.
Same read-out and setting: the figure for B4 is 1.98 OD.
The same measure, in the same setting: the figure for B5 is 1.92 OD.

Another test shares this target. Nature of the test: indirect ELISA, recombinant MA protein coated 1 ug/ml, antibody 1.6 ng/ml. Background: An ELISA detects its analyte on a solid surface through an enzyme-linked reagent.
For B1, the OD value at 450 nm (refer to 630 nm) came to 0.274 OD.
Still for that read-out and setting: next, B2: 0.339 OD; B3: 0.205 OD; B4: 0.297 OD.
On the same count and under the same terms, the figure for B5 is 0.251 OD.

The next test shares this target. Kind of test: indirect ELISA, recombinant MA protein coated 1 ug/ml, antibody 200 ng/ml.
On to B1, for which the OD value at 450 nm (refer to 630 nm) was 2.14 OD.
The same measure, in the same setting: next, B2: 2.19 OD; B3: 1.82 OD; B4: 2.14 OD.
As for B5, the OD value at 450 nm (refer to 630 nm) stood at 2.03 OD.

A further test has the same target. Nature of the test: indirect ELISA, recombinant MA protein coated 1 ug/ml, antibody 0.32 ng/ml.
For B1, the OD value at 450 nm (refer to 630 nm) amounted to 0.255 OD.
Take B2: the OD value at 450 nm (refer to 630 nm) was found to be 0.27 OD.
The same measure, in the same setting: the figure for B3 is 0.173 OD; for B4 it is 0.231 OD.
As for B5, the OD value at 450 nm (refer to 630 nm) is 0.211 OD.

Another test shares this target. Kind of test: indirect ELISA, recombinant MA protein coated 1 ug/ml, antibody 1000 ng/ml.
For B1, the OD value at 450 nm (refer to 630 nm) was 2.23 OD.
On to B2, for which the OD value at 450 nm (refer to 630 nm) was 2.26 OD.
In the case of B3, the OD value at 450 nm (refer to 630 nm) amounted to 1.94 OD.
Still for that read-out and setting: the figure for B4 is 2.21 OD.
Still for that read-out and setting: next, B5: 2.15 OD.

Another test has the same target. Nature of the test: indirect ELISA, recombinant MA protein coated 1 ug/ml, antibody 0 ng/ml (blank).
On to B1, for which the OD value at 450 nm (refer to 630 nm) was found to be 0.053 OD.
Regarding B2, the OD value at 450 nm (refer to 630 nm) amounted to 0.06 OD.
The same measure, in the same setting: next, B3: 0.072 OD.
Still for that read-out and setting: next, B4: 0.072 OD.
Consider B5, for which the OD value at 450 nm (refer to 630 nm) was found to be 0.066 OD.

For the next test the target is unchanged. Nature of the test: indirect ELISA at four coating concentrations, KD calculated from half-maximal OD.
Take B6: the equilibrium dissociation constant (Kd) was 0.0879 nM.
Turning to B2, the dissociation constant Kd is 0.412 nM.
With B7, the Kd was 0.336 nM.
B8: the Kd was 0.415 nM.
On the same count and under the same terms, next, B9: 0.332 nM.
For the molecule B3, the Kd is 0.887 nM.
On the same count and under the same terms, the figure for B10 is 0.526 nM; for B11 it is 0.318 nM; for B12 it is 0.545 nM.
Same read-out and setting: the figure for B13 is 0.759 nM; for B14 it is 0.659 nM; for B15 it is 0.342 nM.
The same measure, in the same setting: the figure for B16 is 0.53 nM; for B17 it is 0.485 nM; for B18 it is 0.439 nM.
Regarding B19, the Kd is 0.516 nM.
Same read-out and setting: next, B20: 0.717 nM.
B21: the dissociation constant Kd is 0.85 nM.
With B22, the Kd is 0.639 nM.
On the same count and under the same terms, next, B23: 0.454 nM.
For B24, the Kd was 0.743 nM.
Same read-out and setting: the figure for B25 is 0.559 nM.
The same measure, in the same setting: next, B26: 0.633 nM.
The same measure, in the same setting: next, B27: 0.55 nM.

The values are drawn from patent US20210395394A1.
